Measurements taken from patent US20140179896A1 (published 2014).

Assays:
[1] = molecular target: T1, mouse vascular endothelial growth factor receptor-2 Fc chimera (Flk-1-Fc) (mouse, UniProt P35918 20-762); assay: radioactive equilibrium binding assay with VEGFR-2-Fc chimeras (FIG. 4)
T1 construct: Purchased from R&D Systems; also called mouse VEGF-R2; not shown: Fc part of the purchased chimera
Experimental: To prepare ³⁵S-labeled binding proteins for analysis, mRNA was prepared as described above for RNA-protein fusion production but the linker ligation step was omitted. The mRNA was expressed using rabbit reticulocyte lysate translation kit (Ambion) in the presence of ³⁵S-labeled Met at 30° C. for 1 hour. Expressed protein was purified on M2-agarose Flag beads (Sigma) as described above. This procedure produced the encoded protein without the nucleic acid tail. […] of the reaction mixture and elution were dried onto a LumaPlate-96 (Packard) and the amount of ³⁵S on the plate was measured using a TopCount NXT instrument (Packard). The amount of fibronectin-based scaffold protein bound to the target was estimated as a percent of radioactivity eluted from Protein A magnetic beads compare to radioactivity in the reaction mixture. Nonspecific binding of fibronectin-based scaffold proteins to the beads was determined by measuring binding in the absence of KDR-Fc and represented less than 1-2% of the input. […] Data was analyzed using the GraphPad Prizm software (GraphPad Software, Inc, San Diego, Calif.), fitted using a one site, non-linear binding equation.

[2] = molecular target: T2, human vascular endothelial growth factor receptor-2 Fc chimera (KDR-Fc) (human, UniProt P35968 20-764); assay: radioactive equilibrium binding (assay not given)
T2 construct: range 1-764; also called human VEGFR-2; hKDR; not shown: human IgG1 Fc
T2 sequence (P35968 20-764 limits assumed, change not shown, form in doubt): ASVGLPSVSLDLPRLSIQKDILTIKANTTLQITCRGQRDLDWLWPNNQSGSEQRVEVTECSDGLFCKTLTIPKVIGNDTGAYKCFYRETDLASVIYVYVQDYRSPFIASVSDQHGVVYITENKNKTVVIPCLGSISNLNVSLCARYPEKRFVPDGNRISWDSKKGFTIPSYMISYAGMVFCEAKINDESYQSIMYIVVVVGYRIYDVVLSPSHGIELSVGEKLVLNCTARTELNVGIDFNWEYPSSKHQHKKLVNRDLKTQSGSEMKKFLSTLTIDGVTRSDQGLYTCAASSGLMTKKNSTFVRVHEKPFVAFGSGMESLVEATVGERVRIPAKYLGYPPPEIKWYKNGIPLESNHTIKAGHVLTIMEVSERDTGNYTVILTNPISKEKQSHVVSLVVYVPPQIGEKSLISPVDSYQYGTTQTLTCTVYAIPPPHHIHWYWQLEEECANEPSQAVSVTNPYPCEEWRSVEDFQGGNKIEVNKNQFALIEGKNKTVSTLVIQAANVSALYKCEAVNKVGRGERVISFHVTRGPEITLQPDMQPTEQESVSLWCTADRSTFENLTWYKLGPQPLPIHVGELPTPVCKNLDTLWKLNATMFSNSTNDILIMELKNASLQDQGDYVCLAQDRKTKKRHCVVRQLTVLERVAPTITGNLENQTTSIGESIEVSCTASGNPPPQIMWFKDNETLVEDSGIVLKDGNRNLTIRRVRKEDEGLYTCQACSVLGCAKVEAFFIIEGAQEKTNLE

[3] = molecular target: T2, human vascular endothelial growth …; assay: binding to 1 nM KDR-Fc, % of input; radioactive equilibrium binding (assay not given)
Outline: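 Percent of input bound is specific binding: total ³⁵S eluted from Protein A beads minus nonspecific bead binding without receptor. The binder (0.2 or 0.5 nM) was incubated with titrated VEGF-R2-Fc in buffer B, 30° C, 1 h.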

T1 sequence (P35918 20-762, change not shown): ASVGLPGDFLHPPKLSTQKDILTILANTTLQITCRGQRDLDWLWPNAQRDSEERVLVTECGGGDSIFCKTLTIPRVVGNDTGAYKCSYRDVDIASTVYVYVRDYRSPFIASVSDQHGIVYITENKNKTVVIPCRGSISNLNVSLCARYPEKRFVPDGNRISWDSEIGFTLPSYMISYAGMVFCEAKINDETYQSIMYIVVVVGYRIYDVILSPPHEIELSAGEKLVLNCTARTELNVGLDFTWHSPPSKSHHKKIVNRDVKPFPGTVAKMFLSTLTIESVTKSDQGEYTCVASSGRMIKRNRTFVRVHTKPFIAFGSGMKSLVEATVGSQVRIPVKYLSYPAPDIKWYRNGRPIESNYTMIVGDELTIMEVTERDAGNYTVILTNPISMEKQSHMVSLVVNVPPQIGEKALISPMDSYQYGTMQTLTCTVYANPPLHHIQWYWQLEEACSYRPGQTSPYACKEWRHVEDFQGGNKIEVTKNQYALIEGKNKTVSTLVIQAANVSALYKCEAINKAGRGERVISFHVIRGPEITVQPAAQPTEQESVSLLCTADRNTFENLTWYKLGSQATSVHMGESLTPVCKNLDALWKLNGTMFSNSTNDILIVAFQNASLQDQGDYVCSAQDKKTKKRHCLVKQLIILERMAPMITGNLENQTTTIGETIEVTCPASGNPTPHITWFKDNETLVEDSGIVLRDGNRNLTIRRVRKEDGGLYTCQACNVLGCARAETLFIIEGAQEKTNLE

binding result [1]: no binding
Kd [2]: 11 nM
Binding to 1 nM KDR, % [3]: 3%
B1: VR28 (designed binder)
chain: VSDVPRDLEVVAATPTSLLISWRHPHFPTRYYRITYGETGGNSPVQEFTVPLQPPTATISGLKPGVDYTITGYAVTVAQNDHELITPISINYRT
notes: 10Fn3 clone with WT N-terminus; tag not included; also called VR28 (I69T); VR28 clone
